Test results taken from patent EP2717940B1.
Values belong to the substance of their own block, whether it stands above or below them.

Experiments:
[1] = biological target: chemokine (C-C motif) receptor 2 (CCR2) on peripheral blood cells (human) (UniProt P41597); assay: flow cytometry, biotinylated chemokine (1 µM) on blood cells of adiposis dolorosa patients, CD19 positive cells, detected with fluorophore conjugated streptavidin
[2] = biological target: chemokine (C-C motif) receptor 2 (CCR2) on peripheral blood cells (human) (UniProt P41597); assay: in vitro depletion: blood of three healthy donors passed through a column with bMCP-1 coupled streptavidin Sepharose matrix, flow cytometry before and after
[3] = biological target: chemokine (C-C motif) receptor 5 (CCR5) (human) (UniProt P51681); assay: cell-based or functional assay
Sequence of chemokine (C-C motif) receptor 5 (CCR5) (human) (P51681 whole entry): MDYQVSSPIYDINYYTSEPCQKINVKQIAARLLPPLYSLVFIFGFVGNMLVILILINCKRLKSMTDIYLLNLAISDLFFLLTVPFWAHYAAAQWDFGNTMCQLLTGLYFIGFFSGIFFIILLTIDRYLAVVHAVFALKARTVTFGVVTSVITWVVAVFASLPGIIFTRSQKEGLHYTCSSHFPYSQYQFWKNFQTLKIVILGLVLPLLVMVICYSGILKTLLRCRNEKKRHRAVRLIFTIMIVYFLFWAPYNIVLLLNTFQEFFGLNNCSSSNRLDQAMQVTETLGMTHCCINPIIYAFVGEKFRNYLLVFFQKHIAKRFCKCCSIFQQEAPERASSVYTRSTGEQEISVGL

[4] = biological target: T1, chemokine (C-C motif) receptor 3 (CCR3) (human) (UniProt P51677); assay: in vitro depletion: blood of a healthy donor passed through a column with biotinylated RANTES coupled matrix, flow cytometry for CCR1, 3 or 5-expressing cells
T1 sequence (looked up): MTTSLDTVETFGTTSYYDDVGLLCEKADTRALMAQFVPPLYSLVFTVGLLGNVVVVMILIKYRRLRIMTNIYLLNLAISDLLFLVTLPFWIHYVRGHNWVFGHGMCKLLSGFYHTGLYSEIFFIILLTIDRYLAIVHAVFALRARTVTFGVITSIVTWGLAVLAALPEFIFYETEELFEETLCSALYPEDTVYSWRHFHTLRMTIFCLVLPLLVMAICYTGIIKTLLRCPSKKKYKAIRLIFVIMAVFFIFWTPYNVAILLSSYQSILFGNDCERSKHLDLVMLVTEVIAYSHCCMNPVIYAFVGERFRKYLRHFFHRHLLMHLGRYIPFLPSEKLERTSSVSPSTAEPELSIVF

[5] = biological target: chemokine (C-C motif) receptor 5 (CCR5) (human) (UniProt P51681); assay: as above
[6] = biological target: T2, chemokine (C-C motif) receptor 1 (CCR1) (human) (UniProt P32246); assay: as above
T2 sequence (looked up): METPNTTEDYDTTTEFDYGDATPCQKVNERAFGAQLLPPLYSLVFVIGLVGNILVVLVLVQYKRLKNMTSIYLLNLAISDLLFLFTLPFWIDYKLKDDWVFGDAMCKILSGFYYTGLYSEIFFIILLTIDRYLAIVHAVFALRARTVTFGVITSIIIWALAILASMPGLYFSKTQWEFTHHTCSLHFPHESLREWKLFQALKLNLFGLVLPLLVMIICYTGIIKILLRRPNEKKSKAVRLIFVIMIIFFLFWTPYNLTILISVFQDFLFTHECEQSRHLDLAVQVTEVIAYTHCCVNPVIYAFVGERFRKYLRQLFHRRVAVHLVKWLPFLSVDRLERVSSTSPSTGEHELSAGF

[7] = biological target: hCCR2b (human) (UniProt P41597); assay: cell-based or functional assay
Sequence of hCCR2b (human) (P41597 other isoform, or with tags, fused parts or gaps): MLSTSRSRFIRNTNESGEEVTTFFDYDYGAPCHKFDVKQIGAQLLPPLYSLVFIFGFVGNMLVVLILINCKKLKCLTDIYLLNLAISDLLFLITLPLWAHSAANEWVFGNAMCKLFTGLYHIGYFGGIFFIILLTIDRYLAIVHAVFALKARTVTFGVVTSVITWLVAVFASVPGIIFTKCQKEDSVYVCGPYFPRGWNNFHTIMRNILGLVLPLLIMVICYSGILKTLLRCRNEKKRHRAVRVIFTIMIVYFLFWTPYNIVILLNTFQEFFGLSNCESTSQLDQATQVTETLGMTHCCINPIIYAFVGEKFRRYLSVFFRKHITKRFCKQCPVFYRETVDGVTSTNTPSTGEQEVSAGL

Sequence of UniProt P13501 (P13501 other isoform, or with tags, fused parts or gaps): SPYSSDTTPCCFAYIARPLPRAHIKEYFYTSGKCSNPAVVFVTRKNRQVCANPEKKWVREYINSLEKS
Sequence of chemokine (C-C motif) receptor 2 (CCR2) on peripheral blood cells (human) (P41597 whole entry): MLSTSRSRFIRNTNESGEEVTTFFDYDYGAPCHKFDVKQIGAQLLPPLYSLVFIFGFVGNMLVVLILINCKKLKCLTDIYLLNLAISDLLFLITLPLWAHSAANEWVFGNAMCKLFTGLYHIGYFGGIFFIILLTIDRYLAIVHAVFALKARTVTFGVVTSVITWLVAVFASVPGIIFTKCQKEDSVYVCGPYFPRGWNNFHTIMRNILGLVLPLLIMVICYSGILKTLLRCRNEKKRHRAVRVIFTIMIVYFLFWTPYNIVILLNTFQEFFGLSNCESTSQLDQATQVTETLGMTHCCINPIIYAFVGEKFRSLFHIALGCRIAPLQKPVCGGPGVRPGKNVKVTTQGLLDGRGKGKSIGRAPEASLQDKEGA

percent of B cells that bind [1]: 65%
remaining levels of monocytes after column passage [2]: 20 to 30%
Substance: biotinylated MCP1 (bMCP1) (from UniProt P13500 24-99) (ligand)

EC50, agonist activity in an Aequorin assay [3]: 0.5 nM
reduction of chemokine receptor-expressing cells by the column [4]: 20%
reduction of chemokine receptor-expressing cells by the column [5]: 20%
reduction of chemokine receptor-expressing cells by the column [6]: 20%
Substance: biotinRANTES (CCL5): RANTES derivatised at the ε-amino side chain functionality of Lys(67) with Biotin (TFA salt) (from UniProt P13501 24-91) (ligand)

EC50, agonist activity in an Aequorin assay [7]: 3.1 nM
Substance: recombinant native MCP-1 (from UniProt P13500 24-99) (ligand)

EC50, activity (partial agonist) in an Aequorin assay [7]: 23.5 nM
Substance: recombinant native MCP-2 (from UniProt P80075 24-99) (ligand)
